Results published in US20070248607A1, “NEGATIVE IMMUNOMODULATION OF IMMUNE RESPONSES BY NKG2D-POSITIVE CD4+ CELLS” (priority 2005, published 2007).

How the values were obtained:
Format in all cases: cell-based
NKG2D+ CD4+ T cells = test: NKG2D expression and expansion of activated CD4 T cells; conditions: for expansion / proliferation of NKG2D+ CD4+ T cells: anti-CD3 activated CD4 T cell cultures
Experimental: For the analysis of NKG2D expression in activated CD4 T cells, freshly isolated pure CD4^+ T cells were plated at 0.3×10^6/2 ml AIM-V medium (Gibco)/well in 24 well plates for various periods of time with or without the presence of mitogenic stimuli and/or the presence of NKG2D ligands. Mitogenic stimuli included either cross-linked anti-CD3 (plates were first coated with AffiniPure F(ab′)2 fragment goat anti-mouse IgG1, Fcγ fragment specific (Jackson ImmunoResearch Laboratories, Inc.) at 10 μg/ml in PBS over night at 4° C. followed by a 4 hr room temperature incubation with anti-CD3 (OKT3, Orthoclone, Ortho Biotech Products, L.P.) at 50 ng/ml (if not indicated otherwise), PHA (5 μg/ml), or PMA/Ionomycin. Ligand additions consisted of either irradiated CLR-MICA and control transfectants at a T cell:transfectant ratio of 5:1, or recombinant soluble MICA at 25 ng/ml if not indicated otherwise. Cells were harvested at various time points after the initiation of culture and tested for NKG2D, CD4 and CD3 coexpression using directly conjugated mAbs for standard three color flow cytometry.
(§1) For analysis of CD4^+ T cell proliferation in conjunction with NKG2D expression, 1×10^7 freshly isolated pure CD4^+ T cells/ml PBS were labeled with an equal volume of 2 μM CFSE (Molecular Probes) for 8 min at room temperature. CFSE was quenched with an equal volume of fetal calf serum for one min followed by three washes with AIM-V medium. CFSE labeled cells were then plated, stimulated and phenotypically analysed as described above. Additional ligands tested in this experimental setting included any of either C1R-MICB, ULBP-1, -2, -3, 4, or -5 transfectants, recombinant soluble MICB, or 5% soluble MIC containing serum from a MIC+ tumor patient and MIC− control serum. To test ligand specificity, ligand containing cultures were treated with either 10 μg/ml 6D4 (anti-MICA/B), 10 μg/ml 3F1 (anti-ULBP-1), or appropriately diluted isotype control immunoglobulins. In some experiments, ligand was replaced by solid-phase anti-NKG2D (1D11) at the concentrations ranging from 5-50 ng/ml. In some experiments, ligand/solid-phase mAb were added on day 1, 2 or 3 after the initiation of culture.

CD4 T cells = test: Cell cycle analysis by propidium iodide staining; conditions: anti-CD3 activated CD4 T cell cultures
NKG2D- CD4+ T cells = test: CD4 T cell proliferation (CFSE dilution, [3H]thymidine incorporation); conditions: anti-CD3 activated CD4 T cell cultures
Experimental: as §1
To assess inhibition of CD4^+ T cell proliferation by standard [^3H]thymidine incorporation experiments, freshly isolated pure CD4^+ T cells were plated at 1×10^5 cells/well in a 96 well flat bottom plate containing titrated cross-linked anti-CD3 (see above) or isotype control Ig with or without titrated recombinant soluble MIC. After 72 hrs at 37° C., plates were pulsed with 3 μCi of [^3H]thymidine (Perkin Elmer) for 12 hrs. Plates were harvested and samples analysed by liquid scintillation using Uni-Filter GF/C plates and a TopCount Counter (both from Packard). Counts from triplicates were averaged.

B1: sMICA: soluble MICA, NKG2D ligand added to CD4 T cell cultures (protein)
chain: EPHSLRYNLTVLSWDGSVQSGFLTEVHLDGQPFLRCDRQKCRAKPQGQWAEDVLGNKTWDRETRDLTGNGKDLRMTLAHIKDQKEGLHSLQEIRVCEIHEDNSTRSSQHFYYDGELFLSQNLETKEWTMPQSSRAQTLAMNVRNFLKEDAMKTKTHYHAMHADCLQELRRYLKSGVVLRRTVPPMVNVTRSEASEGNITVTCRASGFYPWNITLSWRQDGVSLSHDTQQWGDVLPDGNGTYQTWVATRICQGEEQRFTCYMEHSGNHSTHPVPSGK
NKG2D+ CD4+ T cells
  expansion / proliferation of NKG2D+ CD4+ T cells: expansion of NKG2D^+ CD4^+ T cells
NKG2D+ CD4+ T cells; listed as soluble MICA
  expansion / proliferation of NKG2D+ CD4+ T cells: proliferate
NKG2D+ CD4+ T cells; upon anti-CD3 activation
  NKG2D induction on normal CD4+ T cells: enhanced
CD4 T cells
  cell cycle distribution: partial cell cycle arrests in G0/G1
NKG2D- CD4+ T cells
  proliferation of NKG2D- CD4+ T cells: inhibition of NKG2D^− CD4^+ T cell proliferation
